The values below come from patent EP4431526A1 (Emfret Analytics GmbH & Co. KG, dated 2024).

In assay [1] the target is human GPVI, membrane expressed on platelets (human) (UniProt Q9HCN6). Kind of assay: flow cytometry ex vivo, hGP6^tg/tg platelets, 48 h after 4 mg/kg i.v.
The target is the same in assay [2]. Kind of assay: flow cytometry ex vivo, hGP6^tg/tg platelets, competition with Emf3-FITC, 1 h after 4 mg/kg i.v.
The target is the same in assay [3]. Kind of assay: flow cytometry ex vivo, hGP6^tg/tg platelets, competition with Emf3-FITC, 120 h after 4 mg/kg i.v.
Assay [4] has the same target. The assay can be described thus: cell-based or functional assay.
For assay [5] the target is unchanged. The assay can be described thus: flow cytometry ex vivo, hGP6^tg/tg platelets, 72 h after 4 mg/kg i.v.
The target is the same in assay [6]. Kind of assay: flow cytometry ex vivo, hGP6^tg/tg platelets, competition with Emf3-FITC, 48 h after 4 mg/kg i.v.
The target of assay [7] is T1, human GPVI-Fc fusion protein (human, UniProt Q9HCN6 21-267, limits assumed).
T1 construct: also called human GPVI protein antigen
T1 sequence (looked up): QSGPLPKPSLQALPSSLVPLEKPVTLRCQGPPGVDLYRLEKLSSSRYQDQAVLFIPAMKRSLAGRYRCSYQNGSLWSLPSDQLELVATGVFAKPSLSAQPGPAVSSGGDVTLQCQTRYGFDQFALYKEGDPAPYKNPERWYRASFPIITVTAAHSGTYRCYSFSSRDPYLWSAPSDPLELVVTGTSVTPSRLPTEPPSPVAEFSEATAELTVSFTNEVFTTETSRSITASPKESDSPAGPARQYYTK
Kind of assay: method not stated at this place (BLI elsewhere); target printed as 'human GPVI'.

For assay [8], the target named is human GPVI, membrane expressed on platelets (human) (UniProt Q9HCN6). Kind of assay: flow cytometry ex vivo, hGP6^tg/tg platelets, competition with Emf3-FITC, 96 h after 4 mg/kg i.v.
Assay [9] shares this target. The assay can be described thus: flow cytometry ex vivo, hGP6^tg/tg platelets, competition with Emf3-FITC, 72 h after 4 mg/kg i.v.
Assay [10] shares this target. Kind of assay: flow cytometry ex vivo, hGP6^tg/tg platelets, competition with Emf3-FITC, 24 h after 4 mg/kg i.v.
The target is the same in assay [11]. Kind of assay: flow cytometry ex vivo, hGP6^tg/tg platelets, anti-human IgG-Fab-FITC, 1 h after 4 mg/kg i.v.
For assay [12], the target named is T1, human GPVI-Fc fusion protein. The assay can be described thus: BLI (Octet), GPVI-Fc on biosensor, 1:1 fit.
The target in assay [13] is human GPVI, membrane expressed on platelets (human) (UniProt Q9HCN6). The assay can be described thus: flow cytometry, hGP6^tg/tg platelets, anti-human IgG-Fab detection, EMA601 at 0.2 ug/mL.
The target is the same in assay [14]. The assay can be described thus: flow cytometry, hGP6^tg/tg platelets, anti-human IgG-Fab detection, EMA601 at 0.1 ug/mL.
Assay [15] deals with T1, human GPVI-Fc fusion protein. Kind of assay: ratio of KD values (0.46 nM against 0.195 nM).

B1: Emf6.1^Fab (Fab, V domains shown)
VH: QVQLKESGPGLVQPSQSLSITCTVSGFSLTSYGVTWVRQPPGKGLEWLGVIWGDGSTNYHSGLRSRLSISRDDSKSQVFLKLNSLQTDDTATYYCAKPIYYDFDDDAMDYWGQGTSVTVSS
VL: DIVMTQSQKFMSTSVGDRVSVTCKASQNVGTYVAWFQQKPGQSPKTLIYSASYRCSGVPDRFTGSGSGTDFTLTISNVQSDDLAEYFCHQYNNYPLTFGAGTKLELR
notes: also called Fab fragments of Emf6.1
On to B1, for which the results for the receptor occupancy in [1] and in assay [5] were greater than 50% and greater than 35%, respectively. The % of the binding epitopes on GPVI occupied in assay [2] came to 90%; in assay [3], 13%; in assay [6], 50%; in assay [8] it was 19%; in assay [9] it was 36%; in assay [10] it was 76%. For the same molecule, in assay [4], the thrombus volume on collagen under flow (1000 s^-1), human blood turned out to be 75 % reduction. The Kd in assay [7] was determined as 0.46 nM.

B2: HC1 LC2 humanized Fab (EMA601) (Fab, V domains shown)
VH: QVQLQESGPGLVKPSETLSLTCTASGFSLTSYGVTWIRQPPGKGLEWIGVIWGDGSTNYHSGLRSRVTISVDTSKSQFSLKLSSVTAADTAVYYCAKPIYYDFDDDAMDYWGQGTLVTVSS
VL: DIQMTQSPSSLSASVGDRVTITCKASQNVGTYVAWFQQRPGKAPKSLIYSASYRCSGVPSKFSGSGSGTDFTLTINSLQPEDFATYYCHQYNNYPLTFGQGTKVEIKR
notes: also called EMF601; VH1:VL2
In assay [11], B2 had a fold amount of bound Fab against ACT017 of 1.8 fold. Moreover, in assay [12], the affinity, expressed as Kd, was 0.195 nM; the off-rate constant (koff) amounted to 0.000123 s⁻¹; the kon was determined as 628000 M⁻¹ s⁻¹. In assay [4], this molecule had a collagen-induced aggregation of washed human platelets of 50 % reduction; a potency to inhibit GPVI function in human and hGP6^tg/tg platelets in vitro, against ACT017 of 10 fold. Besides, the % of the epitopes occupied compared to the highest tested concentration (50 µg/mL) in assay [13] is 86.2%. The % of the epitopes occupied compared to the highest tested concentration (50 µg/mL) in assay [14] worked out at 57.3%. Moreover, the “fold increase of affinity against Emf6.1^Fab” value in assay [15] was roughly 2.3 fold.
